In the supplement of paper PMC6757056:
± gives the standard deviation of the averaged measurements.

B1: library; a variant is named by its letters at N, in order (parent)
chain: GCUGUCACCGGUGUAUUACCCUAGUGGUCGACCGGUCUGAUGAGUCUNNNNNNAGACGAAACAGC

Tests used:
[1] = variants of: B1; assay: FACS-Seq fitted mean relative fluorescence mCherry/BFP without ligand (log10 relative fluorescence); ligand: hypoxanthine (xanthine aptamer); higher = higher reporter protein expression; conditions: HEK293T, ligand present: no
Method in brief: (§1)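 Genomic DNA from 6 mCherry/BFP sort bins was PCR-amplified, barcoded and sequenced on MiSeq. The sorted cells were enriched HEK293T libraries, lentivirally transduced with a ribozyme-switch mCherry reporter and an EF1α-BFP marker, incubated with or without ligand for 48 h. Fluorescence derives from a normal fit to the bin counts. The fit was on log10(mCherry/BFP), and means were scaled to five spiked-in control ribozymes.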

[2] = variants of: B1; assay: normalized RNA/DNA level with ligand (relative to sTRSVctl = 100) (log10 (% of sTRSVctl)); ligand: hypoxanthine (xanthine aptamer); higher = less ribozyme self-cleavage, higher mRNA level; conditions: ligand concentration (+) RNA-Seq: 5 mM, HEK293T, reporter: mCherry (pCS4076), ligand present: yes
Method in brief: (§2)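 Library plasmids carrying ribozyme switches linked to mCherry, or to eGFP in some ligand experiments, were transfected into HEK293T at 4 µg per 6-well well, with any ligand added 1 h earlier. Seventy-two hours on, total RNA was extracted with EDTA and reverse-transcribed, amplified, barcoded and sequenced. RNA level was RNA over DNA reads normalized to a spiked-in non-cleaving sequence or to the top sequences, then scaled and log-transformed. The top set was 25 sequences, the transform was ×100 and log10, and sequences needed ≥100 DNA reads.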

[3] = variants of: B1; assay: normalized RNA/DNA level without ligand (relative to sTRSVctl = 100) (log10 (% of sTRSVctl)); ligand: hypoxanthine (xanthine aptamer); higher = less ribozyme self-cleavage, higher mRNA level; conditions: HEK293T, reporter: mCherry (pCS4076), ligand present: no
Method in brief: as §2

[4] = variants of: B1; assay: FACS-Seq fitted mean relative fluorescence mCherry/BFP with ligand (log10 relative fluorescence); ligand: hypoxanthine (xanthine aptamer); ligand concentration (+) FACS-Seq: 5 mM; higher = higher reporter protein expression; conditions: HEK293T, ligand present: yes
Method in brief: as §1

Variant | FACS-Seq fitted mean (log10) [1] | normalized RNA/DNA level with ligand (log10) [2] | normalized RNA/DNA level without ligand (log10) [3] | FACS-Seq fitted mean (log10) [4]
GCUGUCACCGGUGUAUUACCCUAGUGGUCGACCGGUCUGAUGAGUCUGGGGAAAGACGAAACAGC | 0.623 ± 0.047 | 1.91 ± 0.032 | 1.66 ± 0.022 | 0.751 ± 0.032
GCUGUCACCGGUGUAUUACCCUAGUGGUCGACCGGUCUGAUGAGUCUGAUUAGAGACGAAACAGC | 0.0562 ± 0.066 | 1.86 ± 0.075 | 1.39 ± 0.014 | 0.539 ± 0.085
GCUGUCACCGGUGUAUUACCCUAGUGGUCGACCGGUCUGAUGAGUCUCCAAGUAGACGAAACAGC | 0.347 ± 0.027 | 1.94 ± 0.024 | 1.863 ± 0.016 | 0.544 ± 0.032
GCUGUCACCGGUGUAUUACCCUAGUGGUCGACCGGUCUGAUGAGUCUGAAUUCAGACGAAACAGC | 0.407 ± 0.28 | 1.929 ± 0.0056 | 1.9 ± 0.039 | 0.388 ± 0.089
GCUGUCACCGGUGUAUUACCCUAGUGGUCGACCGGUCUGAUGAGUCUAACCUGAGACGAAACAGC | 0.131 ± 0.046 | 1.81 ± 0.02 | 1.38 ± 0.028 | 0.4422 ± 0.0015
GCUGUCACCGGUGUAUUACCCUAGUGGUCGACCGGUCUGAUGAGUCUAAGUUAAGACGAAACAGC | -0.098 ± 0.017 | 1.89 ± 0.02 | 1.613 ± 0.013 | 0.476 ± 0.07
GCUGUCACCGGUGUAUUACCCUAGUGGUCGACCGGUCUGAUGAGUCUUUAUGGAGACGAAACAGC | 0.281 ± 0.094 | 1.89 ± 0.032 | 1.666 ± 0.015 | 0.317 ± 0.05
GCUGUCACCGGUGUAUUACCCUAGUGGUCGACCGGUCUGAUGAGUCUGAUUGUAGACGAAACAGC | 0.452 ± 0.076 | 1.944 ± 0.01 | 1.77 ± 0.042 | 0.601 ± 0.054
GCUGUCACCGGUGUAUUACCCUAGUGGUCGACCGGUCUGAUGAGUCUGUGUGCAGACGAAACAGC | 0.169 ± 0.0029 | 1.801 ± 0.013 | 1.36 ± 0.089 | 0.597 ± 0.033
GCUGUCACCGGUGUAUUACCCUAGUGGUCGACCGGUCUGAUGAGUCUCGUAAAAGACGAAACAGC | 0.554 ± 0.028 | 1.865 ± 0.0031 | 1.65 ± 0.034 | 0.4915 ± 0.0049
GCUGUCACCGGUGUAUUACCCUAGUGGUCGACCGGUCUGAUGAGUCUCAGGUAAGACGAAACAGC | -0.0109 ± 0.015 | 1.757 ± 0.016 | 1.57 ± 0.014 | 0.148 ± 0.04
GCUGUCACCGGUGUAUUACCCUAGUGGUCGACCGGUCUGAUGAGUCUUAAUGGAGACGAAACAGC | 0.218 ± 0.021 | 1.87 ± 0.044 | 1.53 ± 0.052 | 0.457 ± 0.038
GCUGUCACCGGUGUAUUACCCUAGUGGUCGACCGGUCUGAUGAGUCUGUAUAUAGACGAAACAGC | -0.558 ± 0.056 | 1.84 ± 0.024 | 1.8 ± 0.041 | -0.474 ± 0.016
GCUGUCACCGGUGUAUUACCCUAGUGGUCGACCGGUCUGAUGAGUCUCGAAACAGACGAAACAGC | 0.667 ± 0.046 | 1.92 ± 0.063 | 1.732 ± 0.0036 | 0.6 ± 0.081
GCUGUCACCGGUGUAUUACCCUAGUGGUCGACCGGUCUGAUGAGUCUCGCCAGAGACGAAACAGC | 0.462 ± 0.027 | 1.99 ± 0.051 | 1.84 ± 0.12 | 0.537 ± 0.0082
GCUGUCACCGGUGUAUUACCCUAGUGGUCGACCGGUCUGAUGAGUCUUCUAAAAGACGAAACAGC | 0.325 ± 0.034 | 1.96 ± 0.035 | 1.79 ± 0.062 | 0.0897 ± 0.011
GCUGUCACCGGUGUAUUACCCUAGUGGUCGACCGGUCUGAUGAGUCUCGUGAAAGACGAAACAGC | -0.0193 ± 0.0065 | 1.87 ± 0.051 | 1.6 ± 0.029 | 0.148 ± 0.033
GCUGUCACCGGUGUAUUACCCUAGUGGUCGACCGGUCUGAUGAGUCUGUAGGCAGACGAAACAGC | 0.126 ± 0.003 | 1.87 ± 0.043 | 1.38 ± 0.043 | 0.611 ± 0.02
GCUGUCACCGGUGUAUUACCCUAGUGGUCGACCGGUCUGAUGAGUCUAGGCCUAGACGAAACAGC | 0.421 ± 0.032 | 1.94 ± 0.022 | 1.97 ± 0.069 | 0.554 ± 0.071
GCUGUCACCGGUGUAUUACCCUAGUGGUCGACCGGUCUGAUGAGUCUAUCCUCAGACGAAACAGC | -0.169 ± 0.0024 | 2.021 ± 0.0097 | 1.97 ± 0.04 | -0.394 ± 0.056
GCUGUCACCGGUGUAUUACCCUAGUGGUCGACCGGUCUGAUGAGUCUCAAUAAAGACGAAACAGC | 0.566 ± 0.035 | 1.89 ± 0.04 | 1.654 ± 0.0078 | 0.578 ± 0.07
